Where “and” joins values, the source holds several entries; their conditions need not be identical. Equal values may be shown once. Read-outs that look alike come from different tables or passages of the source. One block for each binder: values may come before it.
What was measured:
[1] = molecular target: T1, human HER3-Fc (R&D Systems, 348-RB) (human, UniProt P21860 20-643); assay: HRG competition alphascreen
T1 construct: Bought; also called hHER3-Fc; Fc-HER3; Fc part of the bought chimera not given, not described

human HER4 [2] = molecular target: T2, human HER4 (human, UniProt Q15303 26-1308); assay: FACS, CHO-HER4
T2 sequence (Q15303 26-1308 limits assumed): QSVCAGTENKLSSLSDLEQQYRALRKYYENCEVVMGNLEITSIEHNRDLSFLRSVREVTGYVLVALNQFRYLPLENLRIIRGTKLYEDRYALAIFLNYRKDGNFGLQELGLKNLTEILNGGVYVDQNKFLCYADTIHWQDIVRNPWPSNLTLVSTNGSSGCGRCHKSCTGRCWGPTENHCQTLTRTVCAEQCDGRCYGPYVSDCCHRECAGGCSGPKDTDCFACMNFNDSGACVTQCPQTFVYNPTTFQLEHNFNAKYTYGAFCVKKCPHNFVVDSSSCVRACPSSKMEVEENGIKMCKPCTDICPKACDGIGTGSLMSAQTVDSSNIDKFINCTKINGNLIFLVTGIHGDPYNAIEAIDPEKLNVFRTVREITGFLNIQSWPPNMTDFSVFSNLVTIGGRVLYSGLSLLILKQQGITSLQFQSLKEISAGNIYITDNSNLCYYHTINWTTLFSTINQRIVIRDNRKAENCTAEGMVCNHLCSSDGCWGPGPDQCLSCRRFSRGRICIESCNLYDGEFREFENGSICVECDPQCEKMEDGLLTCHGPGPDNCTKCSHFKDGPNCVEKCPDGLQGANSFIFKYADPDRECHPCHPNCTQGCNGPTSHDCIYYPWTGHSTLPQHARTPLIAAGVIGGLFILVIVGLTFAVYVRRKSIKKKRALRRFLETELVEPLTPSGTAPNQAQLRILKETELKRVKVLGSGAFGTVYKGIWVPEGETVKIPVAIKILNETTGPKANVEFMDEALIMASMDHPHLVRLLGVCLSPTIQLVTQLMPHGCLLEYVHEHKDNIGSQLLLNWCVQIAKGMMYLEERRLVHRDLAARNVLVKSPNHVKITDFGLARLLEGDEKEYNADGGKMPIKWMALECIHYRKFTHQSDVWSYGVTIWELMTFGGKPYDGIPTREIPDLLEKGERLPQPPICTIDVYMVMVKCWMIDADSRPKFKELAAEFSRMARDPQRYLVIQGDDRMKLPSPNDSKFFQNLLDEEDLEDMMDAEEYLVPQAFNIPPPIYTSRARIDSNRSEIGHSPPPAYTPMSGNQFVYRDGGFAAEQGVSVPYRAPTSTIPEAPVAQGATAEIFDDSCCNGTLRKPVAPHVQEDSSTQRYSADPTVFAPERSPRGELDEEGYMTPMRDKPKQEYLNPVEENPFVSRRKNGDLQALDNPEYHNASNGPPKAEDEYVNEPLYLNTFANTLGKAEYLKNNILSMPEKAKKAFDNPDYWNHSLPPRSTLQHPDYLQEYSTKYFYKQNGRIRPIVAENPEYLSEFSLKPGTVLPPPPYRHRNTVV

hHER3 full length [3] = molecular target: T3, hHER3 full length (human, UniProt P21860 20-1342); assay: FACS, 400 nM, competitor 17C08-biotin
T3 construct: On transfected CHO, CHO HER2/HER3, CHO EGFR/HER3 or CHO Flp-In cells; endogenous HER3 of MCF-7 and MDA-MB468 cells in the signalling assays; also called human HER3

human HER1 [4] = molecular target: T4, human HER1 (human, UniProt P00533 25-1210); assay: FACS, CHO-HER1
T4 construct: also called EGFR; ErbB1

human HER2 [5] = molecular target: T5, human HER2 (human, UniProt P04626 23-1255); assay: FACS CHO-HER2, 667 nM
T5 construct: also called hHER2

hHER3 full length [6] = molecular target: T3, hHER3 full length; assay: FACS, 400 nM, competitor 18E08-biotin
human HER2 [7] = molecular target: T5, human HER2; assay: FACS CHO-HER2, 2000 nM
human HER4 [8] = molecular target: T2, human HER4; assay: FACS CHO-HER4, 667 nM
hHER3 full length [9] = molecular target: T3, hHER3 full length; assay: FACS, 400 nM, competitor 23F05-biotin
[10] = molecular target: T6, hHER3 ECD (human HER3 extracellular domain) (human, UniProt P21860 20-643); assay: ELISA, coated hHER3-ECD
T6 construct: also called recombinant HER3-ECD

hHER3 full length [11] = molecular target: T3, hHER3 full length; assay: FACS, 400 nM, competitor 04F10-biotin
human HER2 [12] = molecular target: T5, human HER2; assay: FACS CHO-HER2, 222 nM
[13] = molecular target: T6, hHER3 ECD (human HER3 extracellular …); assay: SPR off rate on HER3-ECD
human HER4 [14] = molecular target: T2, human HER4; assay: FACS CHO-HER4, 2000 nM
[15] = molecular target: T7, cHER3ECD (Maccaca fascicularis HER3 extracellular domain) (Macaca fascicularis, UniProt P21860 20-643 (human entry)); assay: ELISA, coated cHER3-ECD
T7 construct: also called cyno HER3ECD; cyno HER3-ECD
T7 chain: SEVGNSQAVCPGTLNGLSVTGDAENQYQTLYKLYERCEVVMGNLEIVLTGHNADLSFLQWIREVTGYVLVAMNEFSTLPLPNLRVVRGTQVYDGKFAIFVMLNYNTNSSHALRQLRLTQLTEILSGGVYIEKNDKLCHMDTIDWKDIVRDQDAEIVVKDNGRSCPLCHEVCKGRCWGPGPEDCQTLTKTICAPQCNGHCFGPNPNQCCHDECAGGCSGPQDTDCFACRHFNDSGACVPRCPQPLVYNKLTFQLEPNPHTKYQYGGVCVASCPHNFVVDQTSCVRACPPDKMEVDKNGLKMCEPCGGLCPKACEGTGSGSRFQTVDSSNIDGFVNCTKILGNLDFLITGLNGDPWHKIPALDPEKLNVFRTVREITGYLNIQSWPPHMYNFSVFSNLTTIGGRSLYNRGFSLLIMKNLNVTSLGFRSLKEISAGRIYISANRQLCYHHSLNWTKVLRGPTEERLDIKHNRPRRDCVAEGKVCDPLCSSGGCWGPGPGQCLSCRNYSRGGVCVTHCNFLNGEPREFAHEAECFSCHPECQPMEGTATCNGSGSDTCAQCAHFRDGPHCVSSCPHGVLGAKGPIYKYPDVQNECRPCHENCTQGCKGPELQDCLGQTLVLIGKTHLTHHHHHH

hHER3 full length [16] = molecular target: T3, hHER3 full length; assay: cell-based or functional assay
hHER3 full length [17] = molecular target: T3, hHER3 full length; assay: cell-based or functional assay; remark: listed apart in the source
hHER3 full length [18] = molecular target: T3, hHER3 full length; assay: cell-based or functional assay; remark: listed apart in the source
human HER2 [19] = molecular target: T5, human HER2; assay: FACS, CHO-HER2
[20] = molecular target: T1, human HER3-Fc (R&D Systems, 348-RB); assay: HRG competition alphascreen; remark: listed apart in the source
hHER3 full length [21] = molecular target: T3, hHER3 full length; assay: FACS, 400 nM, competitor 21B02-biotin
[22] = molecular target: T1, human HER3-Fc (R&D Systems, 348-RB); assay: HRG competition alphascreen; remark: listed apart in the source
[23] = molecular target: T1, human HER3-Fc (R&D Systems, 348-RB); assay: SPR, HER3-Fc captured by anti-Fc
hHER3 full length [24] = molecular target: T3, hHER3 full length; assay: FACS, 400 nM, competitor 04C07-biotin
human HER1 [25] = molecular target: T4, human HER1; assay: FACS CHO-HER1, 2000 nM
hHER3 full length [26] = molecular target: T3, hHER3 full length; assay: cell-based or functional assay; remark: listed apart in the source
[27] = molecular target: T6, hHER3 ECD (human HER3 extracellular …); assay: SPR off rate on HER3-ECD; remark: listed apart in the source
human HER4 [28] = molecular target: T2, human HER4; assay: FACS CHO-HER4, 222 nM
hHER3 full length [29] = molecular target: T3, hHER3 full length; assay: FACS competition with HRG1-β1-EGF, CHO-HER3
human HER1 [30] = molecular target: T4, human HER1; assay: FACS CHO-HER1, 667 nM
human HER1 [31] = molecular target: T4, human HER1; assay: FACS CHO-HER1, 222 nM
[32] = molecular target: T8, Chimeric chicken Her3-human domain 2 (AA207-328 human) (chicken/human chimera); assay: FACS, HEK293 with chimeric HER3
T8 construct: Transmembrane and extracellular regions, on HEK293 cells
T8 chain: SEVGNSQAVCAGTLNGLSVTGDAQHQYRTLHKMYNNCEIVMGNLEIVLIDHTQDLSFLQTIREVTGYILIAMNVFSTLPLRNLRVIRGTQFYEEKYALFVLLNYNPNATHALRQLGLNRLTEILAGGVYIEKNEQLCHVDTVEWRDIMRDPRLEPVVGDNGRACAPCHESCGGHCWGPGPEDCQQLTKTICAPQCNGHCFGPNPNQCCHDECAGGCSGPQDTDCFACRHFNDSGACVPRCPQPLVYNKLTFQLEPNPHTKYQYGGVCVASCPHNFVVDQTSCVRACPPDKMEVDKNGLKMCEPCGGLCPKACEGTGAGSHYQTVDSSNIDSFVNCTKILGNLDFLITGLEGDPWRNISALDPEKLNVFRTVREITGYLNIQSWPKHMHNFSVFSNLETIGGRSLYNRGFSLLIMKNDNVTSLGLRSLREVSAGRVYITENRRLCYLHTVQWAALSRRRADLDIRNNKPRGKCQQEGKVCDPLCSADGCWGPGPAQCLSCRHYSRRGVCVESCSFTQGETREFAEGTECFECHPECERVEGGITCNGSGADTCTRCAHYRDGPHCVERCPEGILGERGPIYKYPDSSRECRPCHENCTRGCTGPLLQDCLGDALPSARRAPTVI

- IC50 [1]: 0.78 nM
- binding result (human HER4 [2]): no binding (tested: 2000 nM)
- % competition (hHER3 full length [3]): 0%
- binding result (human HER1 [4]): no binding (tested: 2000 nM)
- MCF (human HER2 [5]): 86
- % competition (hHER3 full length [6]): 0%
- MCF (human HER2 [7]): 134
- MCF (human HER4 [8]): 90
- % competition (hHER3 full length [9]): 0%
- EC50 [10]: 0.63 nM
- % competition (hHER3 full length [11]): 68%
- MCF (human HER2 [12]): 84
- koff [13]: 0.00018 s⁻¹ and 0.0002 s⁻¹
- MCF (human HER4 [14]): 116
- EC50 [15]: 0.66 nM
- IC50, HRG1-β1 induced pHER3, MCF-7 (hHER3 full length [16]): 5.34e-09 M
- IC50, HRG1-β1 induced pHER3, MDA-MB468 (hHER3 full length [16]): 2.79e-08 M
- IC50, HRG1-β1 induced pAkt, MCF-7 (hHER3 full length [17]): 7.83e-09 M
- IC50, HRG1-β1 induced pERK1/2, MCF-7 (hHER3 full length [17]): 2.36e-09 M
- IC50, EGF induced pHER3, CHO EGFR/HER3 (hHER3 full length [18]): 3.43e-10 M
- IC50, TGFα induced pHER3, CHO EGFR/HER3 (hHER3 full length [18]): 8.15e-10 M
- IC50, epiregulin induced pHER3, CHO EGFR/HER3 (hHER3 full length [18]): 2.48e-10 M
- binding result (human HER2 [19]): no binding (tested: 2000 nM)
- IC50 [20]: 0.34 nM and 0.93 nM
- % competition (hHER3 full length [21]): 0%
- % inhibition [22]: 87%
- IC50 [22]: 0.755 nM
- Kd [23]: 0.11 nM
- kon [23]: 390000 M⁻¹ s⁻¹
- % competition (hHER3 full length [24]): 100%
- MCF (human HER1 [25]): 49
- IC50 pHER3 blocking, HRG stimulated MCF7 (hHER3 full length [26]): 4.52e-09 M
- koff [27]: 0.00018 s⁻¹ and 0.0002 s⁻¹
- MCF (human HER4 [28]): 142
- IC50 (hHER3 full length [29]): 33.4 nM
- MCF (human HER1 [30]): 64
- MCF (human HER1 [31]): 85
B1: 17B05 (VHH)
VHH: EVQLVESGGGLVQPGGSLRLSCAASGSIGGLNAMAWYRQAPGKERELVAGIFGVGSTRYADSVKGRFTISRDIAKNTVFLQMNSLNSEDTAVYYCRMSSVTRGSSDYWGQGTQVTVSS
notes: also called HER3MS17B05; HER3MS017B05

- binding result (human HER4 [2]): no binding (tested: 2000 nM)
- % competition (hHER3 full length [3]): 63%
- binding result (human HER1 [4]): no binding (tested: 2000 nM)
- MCF (human HER2 [5]): 52
- % competition (hHER3 full length [6]): 86%
- MCF (human HER2 [7]): 78
- MCF (human HER4 [8]): 80
- % competition (hHER3 full length [9]): 0%
- EC50 [10]: 4.7 nM
- % competition (hHER3 full length [11]): 0%
- MCF (human HER2 [12]): 53
- MCF (human HER4 [14]): 115
- EC50 [15]: 4.4 nM
- IC50, HRG1-β1 induced pHER3, MCF-7 (hHER3 full length [16]): 6.39e-08 M
- IC50, HRG1-β1 induced pHER3, MDA-MB468 (hHER3 full length [16]): 1.01e-07 M
- IC50, HRG1-β1 induced pAkt, MCF-7 (hHER3 full length [17]): 5.69e-08 M
- inhibition of HRG1-β1 induced pERK1/2, MCF-7 (hHER3 full length [17]): < 50 % inhibition
- binding result [32]: binds
- binding result (human HER2 [19]): no binding (tested: 2000 nM)
- % competition (hHER3 full length [21]): 4%
- Kd [23]: 53.8 nM
- kon [23]: 10400 M⁻¹ s⁻¹
- % competition (hHER3 full length [24]): 0%
- MCF (human HER1 [25]): 64
- MCF (human HER4 [28]): 91
- MCF (human HER1 [30]): 62
- MCF (human HER1 [31]): 61
B2: 18E08 (VHH)
VHH: EVQLVESGGGLVQPGGSLRLSCAASGTLFKINAMGWYRQAPGKQRELVALITSSDTTDYAESVEGRFTISRDNTWNAVYLQMNSLKPEDTAVYYCHSDHYSMGVPEKRVIMYGQGTQVTVSS

Source: patent US20130136748A1 (Ablynx, published 2013)
